# Source: US20050260657A1
# Tests used:
# [1] = biological target: IP3R1 (inositol 1,4,5-trisphosphate receptor type 1), untagged, expressed in cells (mouse) (UniProt P11881); assay: cell-based or functional assay
# [2] = biological target: endogenous IP3R1 of HeLa cells (UniProt Q14643); assay: cell-based or functional assay
# Chain of endogenous IP3R1 of HeLa cells (Q14643 whole entry): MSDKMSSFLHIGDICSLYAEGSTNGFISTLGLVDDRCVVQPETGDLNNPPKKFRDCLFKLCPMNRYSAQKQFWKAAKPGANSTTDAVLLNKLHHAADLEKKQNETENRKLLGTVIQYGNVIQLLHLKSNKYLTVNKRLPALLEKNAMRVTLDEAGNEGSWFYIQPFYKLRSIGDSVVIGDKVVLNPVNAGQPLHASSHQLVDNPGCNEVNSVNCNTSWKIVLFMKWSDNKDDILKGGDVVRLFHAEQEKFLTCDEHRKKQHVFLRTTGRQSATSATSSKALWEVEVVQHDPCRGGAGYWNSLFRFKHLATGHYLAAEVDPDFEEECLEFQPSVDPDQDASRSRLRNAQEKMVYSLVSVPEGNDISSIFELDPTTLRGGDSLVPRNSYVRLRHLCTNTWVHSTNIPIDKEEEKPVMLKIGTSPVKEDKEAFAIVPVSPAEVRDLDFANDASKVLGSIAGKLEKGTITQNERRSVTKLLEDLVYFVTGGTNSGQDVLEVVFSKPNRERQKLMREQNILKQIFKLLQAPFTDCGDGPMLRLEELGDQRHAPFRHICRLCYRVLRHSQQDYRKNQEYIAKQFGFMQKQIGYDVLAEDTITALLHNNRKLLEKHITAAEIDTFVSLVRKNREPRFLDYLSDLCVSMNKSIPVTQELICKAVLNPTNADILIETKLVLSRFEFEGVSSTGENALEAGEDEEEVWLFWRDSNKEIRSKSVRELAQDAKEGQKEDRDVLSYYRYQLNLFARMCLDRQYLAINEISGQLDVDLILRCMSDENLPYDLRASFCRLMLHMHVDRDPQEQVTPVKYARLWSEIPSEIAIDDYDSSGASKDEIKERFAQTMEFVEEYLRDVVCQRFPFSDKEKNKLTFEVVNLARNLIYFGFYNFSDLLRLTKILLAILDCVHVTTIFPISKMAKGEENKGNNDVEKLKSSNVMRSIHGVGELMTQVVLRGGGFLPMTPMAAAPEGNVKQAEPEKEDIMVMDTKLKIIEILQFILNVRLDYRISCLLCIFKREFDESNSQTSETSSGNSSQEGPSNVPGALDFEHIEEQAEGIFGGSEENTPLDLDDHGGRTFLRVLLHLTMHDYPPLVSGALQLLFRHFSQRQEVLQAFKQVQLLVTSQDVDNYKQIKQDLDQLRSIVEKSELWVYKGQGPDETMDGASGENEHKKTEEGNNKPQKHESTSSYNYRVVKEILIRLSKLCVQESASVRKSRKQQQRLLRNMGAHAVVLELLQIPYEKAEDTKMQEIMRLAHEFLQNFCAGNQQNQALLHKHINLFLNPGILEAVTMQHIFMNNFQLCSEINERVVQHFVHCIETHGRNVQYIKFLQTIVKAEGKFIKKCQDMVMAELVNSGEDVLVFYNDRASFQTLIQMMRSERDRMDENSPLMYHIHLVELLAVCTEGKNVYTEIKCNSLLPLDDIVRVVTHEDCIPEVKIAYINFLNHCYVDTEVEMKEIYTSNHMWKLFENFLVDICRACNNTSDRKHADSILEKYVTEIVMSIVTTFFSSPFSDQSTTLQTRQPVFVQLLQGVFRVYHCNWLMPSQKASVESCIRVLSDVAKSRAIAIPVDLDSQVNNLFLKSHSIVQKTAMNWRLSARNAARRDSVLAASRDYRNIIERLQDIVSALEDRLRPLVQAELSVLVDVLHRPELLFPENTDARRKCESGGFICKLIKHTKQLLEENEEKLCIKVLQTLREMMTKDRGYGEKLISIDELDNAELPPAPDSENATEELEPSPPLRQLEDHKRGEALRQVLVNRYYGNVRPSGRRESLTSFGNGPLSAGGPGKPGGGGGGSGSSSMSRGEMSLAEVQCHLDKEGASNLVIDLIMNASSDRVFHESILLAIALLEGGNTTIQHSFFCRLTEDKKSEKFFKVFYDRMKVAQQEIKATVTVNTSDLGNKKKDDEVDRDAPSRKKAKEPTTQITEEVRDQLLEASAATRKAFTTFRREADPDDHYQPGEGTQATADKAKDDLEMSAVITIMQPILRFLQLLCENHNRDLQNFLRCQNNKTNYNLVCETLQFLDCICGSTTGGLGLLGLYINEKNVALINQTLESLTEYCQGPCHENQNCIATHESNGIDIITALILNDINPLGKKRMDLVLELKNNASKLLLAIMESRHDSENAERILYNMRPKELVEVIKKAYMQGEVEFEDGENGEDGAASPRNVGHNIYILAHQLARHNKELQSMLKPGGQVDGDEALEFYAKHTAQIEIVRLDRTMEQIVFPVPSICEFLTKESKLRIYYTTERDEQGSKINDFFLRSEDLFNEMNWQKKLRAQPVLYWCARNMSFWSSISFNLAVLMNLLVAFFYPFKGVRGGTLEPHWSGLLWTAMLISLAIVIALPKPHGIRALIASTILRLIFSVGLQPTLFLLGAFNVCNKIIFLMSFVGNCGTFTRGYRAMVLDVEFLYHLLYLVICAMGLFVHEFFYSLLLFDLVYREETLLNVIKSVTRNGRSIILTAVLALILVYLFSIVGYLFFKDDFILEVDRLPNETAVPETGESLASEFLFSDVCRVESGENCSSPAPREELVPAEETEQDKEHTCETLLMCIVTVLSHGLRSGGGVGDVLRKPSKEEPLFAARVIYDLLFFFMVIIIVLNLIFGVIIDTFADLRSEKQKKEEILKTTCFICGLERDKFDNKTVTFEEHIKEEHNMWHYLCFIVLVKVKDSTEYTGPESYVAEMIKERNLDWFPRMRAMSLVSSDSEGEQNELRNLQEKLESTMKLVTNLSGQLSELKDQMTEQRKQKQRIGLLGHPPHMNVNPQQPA
"peak amplitude of BCR-induced Ca2+ release in DT40-KMN60 cells, percent of non-transfected cells [1] [%]","peak amplitude of ATP-induced Ca2+ transient in HeLa cells, percent of non-transfected cells [2] [%]",Ca2+ response in siERp44-3U-pretreated HeLa cells compared with RFP-RDEL-transfected cells [2] [%],Substance
60.6,69.3,,RFP-ERp44 (red fluorescent protein-tagged ERp44) (from UniProt Q9D1Q6 30-406)
,,77.1,RFP-ERp44-C58S (from UniProt Q9D1Q6 30-406)
